Experimental findings from the supplement of paper PMC7877785 are described below.

The series in a line: self-splicing fitness, log relative to wild type (ln ratio); higher = more splicing; Tetrahymena group I intron in knt gene, E. coli kanamycin selection, DiMSum; sequences stand for … in CUCUCU…GGAGGGAAAAGUUAUCAGGCAUGCACCUGGUAGCUAGUCUUUAAACCAAUAGAUUGCAUCGGUUUAAAAGGCAAGACCGUCAAAUUGCGGGAAAGGGGUCAACAGCCGUUCAGUACCAAGUCUCAGGGGAAACUUUGAGAUGGCCUUGCAAAGGGUAUGGUAAUAAGCUGACGGACAUGGUCCUAACCACGCAGCCAAGUCCUAAGUCAACAGAUCUUCUGUUGAUAUGGAUGCAGUUCACAGACUAAAUGUCGGUCGGGGAAGAUGUAUUCUUCUCAUAAGAUAUAGUCGGACCUCUCCUUAAUGGGAGCUAGCGGAUGAAGUGAUGCAACACUGGAGCCGCUGGGAACUAAUUUGUAUGCGAAAGUAUAUUGAUUAGUUUUGGAGUACUCGUGGUCG
Put shortly: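 The eight P1ex-region nucleotides of an intron in the knt kanamycin-resistance gene on pET-22b(+) were all randomised and the library put into E. coli BL21(DE3). Six replicate transformations were grown overnight at 37°C or 30°C on LB agar with or without 25 μg/mL kanamycin, together with 100 μg/mL carbenicillin, 50 μM IPTG and 0.2% rhamnose. Colonies were pooled and amplicon-sequenced on an Illumina HiSeq 2500. Fitness from DiMSum is the error-weighted combination of wild-type-normalised replicate fold changes, kanamycin over none.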

± gives the uncertainty stated by the source.

As for CGCAAGCAAUAUUACGGAGA, the “self-splicing fitness (ln)” value (30 °C) is -3.09 ± 0.18 and the “self-splicing fitness (ln)” value (37 °C) was -2.54 ± 0.19.
In the same order, the values of CUUGAGCAAUAUUACGGGUC are -3.49 ± 0.19 and -2.97 ± 0.25.
GACAAGCAAUAUUACGAACU: the “self-splicing fitness (ln)” value is -0.214 ± 0.066 (30 °C) and 0.284 ± 0.092 (37 °C).
As for GUCCAGCAAUAUUACGAGGU, the “self-splicing fitness (ln)” value reads like this: (30 °C) -2.34 ± 0.11; (37 °C) -1.34 ± 0.13.
The matching figures for UACCAGCAAUAUUACGGCAC: -2.09 ± 0.066 and -1.05 ± 0.067.
Take ACUGAGCAAUAUUACGGCAC: the “self-splicing fitness (ln)” value (30 °C) was -3.97 ± 0.37 and the “self-splicing fitness (ln)” value (37 °C) is -2.6 ± 0.29.
In the same order, the values of GGAAAGCAAUAUUACGCAAA are -2.42 ± 0.28 and -1.05 ± 0.25.
The matching figures for AUGAAGCAAUAUUACGUCGA: -0.936 ± 0.1 and 0.22 ± 0.097.
Consider CUGUAGCAAUAUUACGUUCA, for which the “self-splicing fitness (ln)” value runs as follows: (30 °C) -3.47 ± 0.24; (37 °C) -1.45 ± 0.15.
In the same order, the values of GUAGAGCAAUAUUACGGGGU are -3.18 ± 0.2 and -2.07 ± 0.15.
In the same order, the values of CUGGAGCAAUAUUACGUCUC are -2.68 ± 0.33 and -1.16 ± 0.36.
The matching figures for ACGAAGCAAUAUUACGACUC: -1.12 ± 0.072 and -0.0297 ± 0.088.
AAGGAGCAAUAUUACGGAAG: the “self-splicing fitness (ln)” value is, setting by setting: (30 °C) -3.7 ± 0.34; (37 °C) -1.63 ± 0.25.
Regarding AGGGAGCAAUAUUACGACGU, the “self-splicing fitness (ln)” value is -2.14 ± 0.23 (30 °C) and -1.63 ± 0.19 (37 °C).
For CUCCAGCAAUAUUACGGCCA, the “self-splicing fitness (ln)” value (30 °C) is -2.94 ± 0.25.
As for UAAUAGCAAUAUUACGCUAG, the “self-splicing fitness (ln)” value is, setting by setting: (30 °C) -2.46 ± 0.12; (37 °C) -0.773 ± 0.14.
As for CGCGAGCAAUAUUACGGUUU, the “self-splicing fitness (ln)” value (30 °C) is -4.02 ± 0.22 and the “self-splicing fitness (ln)” value (37 °C) was -2.55 ± 0.18.
The matching figures for UCAGAGCAAUAUUACGGGGA: -1.48 ± 0.11 and -1.1 ± 0.13.
Turning to CGGGAGCAAUAUUACGAACA, the “self-splicing fitness (ln)” value (37 °C) is -1.37 ± 0.22.
As to AUAUAGCAAUAUUACGCCCA, the “self-splicing fitness (ln)” value reads like this: (30 °C) -1.31 ± 0.3; (37 °C) -0.688 ± 0.3.
In the same order, the values of GAUCAGCAAUAUUACGUCGU are -0.403 ± 0.079 and -0.669 ± 0.1.
In the same order, the values of GUUCAGCAAUAUUACGGCAC are -0.46 ± 0.21 and 0.473 ± 0.24.
On to CGCUAGCAAUAUUACGGUGC, for which the “self-splicing fitness (ln)” value reads like this: (30 °C) -4.65 ± 0.34; (37 °C) -3.09 ± 0.25.
The matching figures for AGGCAGCAAUAUUACGCUAG: -3.53 ± 0.25 and -3.04 ± 0.27.
With UAAAAGCAAUAUUACGUGAC, for the setting “37 °C”, the “self-splicing fitness (ln)” value was -3.43 ± 0.46.
For the sequence AAUCAGCAAUAUUACGCUAC, the “self-splicing fitness (ln)” value runs as follows: (30 °C) -2.83 ± 0.23; (37 °C) -2.22 ± 0.27.
In the same order, the values of CGGGAGCAAUAUUACGAUGC are -3.44 ± 0.2 and -2.91 ± 0.4.
In the same order, the values of AGCGAGCAAUAUUACGGCUU are -2.59 ± 0.12 and -2.02 ± 0.21.
In the same order, the values of AGCUAGCAAUAUUACGAACA are -2.24 ± 0.23 and -0.832 ± 0.2.
As for GAGCAGCAAUAUUACGAGAG, the “self-splicing fitness (ln)” value (37 °C) was -2.19 ± 0.28.
For the sequence UACGAGCAAUAUUACGACGC, the “self-splicing fitness (ln)” value is -3 ± 0.27 (30 °C) and -2.09 ± 0.35 (37 °C).
As for AUUCAGCAAUAUUACGGGAA, the “self-splicing fitness (ln)” value (30 °C) was -1.36 ± 0.12 and the “self-splicing fitness (ln)” value (37 °C) was -0.871 ± 0.13.
With UCCAAGCAAUAUUACGUGGG, the “self-splicing fitness (ln)” value (30 °C) is -3.89 ± 0.23 and the “self-splicing fitness (ln)” value (37 °C) was -2.71 ± 0.18.
In the same order, the values of ACGGAGCAAUAUUACGUCGU are -2.98 ± 0.26 and -2.48 ± 0.19.
Turning to CACAAGCAAUAUUACGUUAC, the “self-splicing fitness (ln)” value is, setting by setting: (30 °C) -4.46 ± 0.34; (37 °C) -3.12 ± 0.36.
The matching figures for UUAGAGCAAUAUUACGCUGU: -3.47 ± 0.36 and -1.56 ± 0.21.
In the same order, the values of CUACAGCAAUAUUACGUAUU are -4.19 ± 0.2 and -2.94 ± 0.18.
The matching figures for ACCGAGCAAUAUUACGAUAU: -3.68 ± 0.18 and -1.54 ± 0.14.
